Source: publication doi:10.1101/2022.01.14.473406
Like-named read-outs stand apart in the source and are kept apart here.

B1: nick DNA 3'-dA:C (dsDNA)
DNA 1: GCTGATGCGTA
DNA 2: GTCGGAC
DNA 3: GTCCGACCACGCATCAGC
modifications: 5'-phosphate on downstream strand
B2: nick DNA 3'-dG:T (dsDNA)
DNA 1: GCTGATGCGTG
DNA 2: GTCGGAC
DNA 3: GTCCGACTACGCATCAGC
modifications: 5'-phosphate on downstream strand; 5'-adenylated (DNA-AMP) in crystal
B3: nick DNA 3'-dA:T (dsDNA)
DNA 1: GCTGATGCGTA
DNA 2: GTCGGAC
DNA 3: GTCCGACTACGCATCAGC
modifications: 5'-phosphate on downstream strand; 5'-adenylated (DNA-AMP) in crystal

Legend:
[1] = target: AP-Endonuclease 1 (APE1) (human) (UniProt P27695); assay: SPR
[2] = target: T1, DNA ligase I EE/AA (C-terminal, delta261) (Homo sapiens, UniProt P18858 262-919, E346A;E592A); assay: X-ray crystallography
[3] = target: T1, DNA ligase I EE/AA (C-terminal, …); assay: X-ray crystallography; remark: listed apart in the source

T1 sequence (P18858 262-919 E346A/E592A): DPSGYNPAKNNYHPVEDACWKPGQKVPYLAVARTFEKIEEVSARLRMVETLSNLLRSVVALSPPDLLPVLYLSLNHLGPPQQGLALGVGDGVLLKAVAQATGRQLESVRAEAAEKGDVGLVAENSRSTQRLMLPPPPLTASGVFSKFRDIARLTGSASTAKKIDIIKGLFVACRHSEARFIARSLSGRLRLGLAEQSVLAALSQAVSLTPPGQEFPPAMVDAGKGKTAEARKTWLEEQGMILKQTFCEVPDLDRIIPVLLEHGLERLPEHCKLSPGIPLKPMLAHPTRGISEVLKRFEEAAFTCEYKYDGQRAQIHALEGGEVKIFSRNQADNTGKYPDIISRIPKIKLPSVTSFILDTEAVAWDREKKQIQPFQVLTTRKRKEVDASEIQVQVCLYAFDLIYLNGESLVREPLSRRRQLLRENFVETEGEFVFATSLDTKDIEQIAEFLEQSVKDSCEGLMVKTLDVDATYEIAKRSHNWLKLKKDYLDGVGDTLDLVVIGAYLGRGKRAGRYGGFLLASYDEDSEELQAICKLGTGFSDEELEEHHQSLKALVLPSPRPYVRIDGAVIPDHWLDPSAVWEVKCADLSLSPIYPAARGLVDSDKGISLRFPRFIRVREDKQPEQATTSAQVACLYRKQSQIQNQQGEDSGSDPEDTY
Sequence of AP-Endonuclease 1 (APE1) (human) (P27695 whole entry): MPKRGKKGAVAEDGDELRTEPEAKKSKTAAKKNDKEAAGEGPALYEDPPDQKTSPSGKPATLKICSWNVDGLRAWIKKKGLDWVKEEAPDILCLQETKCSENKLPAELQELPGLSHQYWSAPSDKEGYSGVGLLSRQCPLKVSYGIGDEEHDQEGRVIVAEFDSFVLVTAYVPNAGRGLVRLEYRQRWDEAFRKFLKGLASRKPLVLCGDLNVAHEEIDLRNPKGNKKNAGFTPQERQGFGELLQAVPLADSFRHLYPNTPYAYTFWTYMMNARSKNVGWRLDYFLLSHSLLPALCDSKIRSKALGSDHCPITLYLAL

| Molecule | binding result [3] | also measured |
| --- | --- | --- |
| DNA ligase I (LIG1) (from UniProt P18858 1-919) (enzyme) |  | Kd [1]: 117 nM |
| B1 |  | binding result [2]: binds |
| B2 | binds |  |
| B3 | binds |  |
